The results in this text go back to patent US20150140169.

Residue numbers refer to the chain shown, from its start. Names may count otherwise.

In this data set the target is T1, alpha-s1 casein from Bos taurus.
T1 chain: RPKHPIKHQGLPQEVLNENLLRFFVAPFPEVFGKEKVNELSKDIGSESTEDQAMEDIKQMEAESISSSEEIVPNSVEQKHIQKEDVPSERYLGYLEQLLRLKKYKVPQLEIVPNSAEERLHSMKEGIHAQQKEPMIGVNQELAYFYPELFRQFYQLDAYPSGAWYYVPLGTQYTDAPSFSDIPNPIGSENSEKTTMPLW

B1: camel chymosin variant #136 (F223C) (protein)
chain: GKVAREPLTSYLDSQYFGKIYIGTPPQEFTVVFDTGSSDLWVPSIYCKSNVCKNHHRFDPRKSSTFRNLGKPLSIHYGTGSMEGFLGYDTVTVSNIVDPNQTVGLSTEQPGEVFTYSEFDGILGLAYPSLASEYSVPVFDNMMDRHLVARDLFSVYMDRNGQGSMLTLGAIDPSYYTGSLHWVPVTLQQYWQFTVDSVTINGVAVACVGGCQAILDTGTSVLCGPSSDILKIQMAIGATENRYGEFDVNCGNLRSMPTVVFEINGRDYPLSPSAYTSKDQGFCTSGFQGDNNSELWILGDVFIREYYSVFDRANNRVGLAKAI
In the case of B1, the (αSN1-1)/(αSN1), 6 hours, 11° C. was found to be 0.7; the (αSN1-1)/(αSN1), 24 hours, 11° C. was determined as 1.9; the αs1-I CN, 6 hours, 11° C. was found to be 2.06e+07 Volume; the αs1-I CN, 24 hours, 11° C. amounted to 2.03e+07 Volume. Moreover, the αs1 CN, 6 hours, 11° C. was determined as 2.86e+07 Volume and the αs1 CN, 24 hours, 11° C. is 1.06e+07 Volume.

B2: camel chymosin variant #137 (F223D) (protein)
chain: B1 chain with C223D
In turn, B2 registered a (αSN1-1)/(αSN1), 6 hours, 11° C. of 0.7; a (αSN1-1)/(αSN1), 24 hours, 11° C. of 2.3; a αs1-I CN, 6 hours, 11° C. of 2.26e+07 Volume; a αs1-I CN, 24 hours, 11° C. of 2.55e+07 Volume. This protein registered a αs1 CN, 6 hours, 11° C. of 3.14e+07 Volume and a αs1 CN, 24 hours, 11° C. of 1.1e+07 Volume.
